Assay results as given in US20170291930.

Key:
[1] = biological target: T1, Hst-5 synthetic peptide K17L
T1 chain: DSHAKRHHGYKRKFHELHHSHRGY

[2] = biological target: T2, Hst-5 synthetic peptide K17R
T2 chain: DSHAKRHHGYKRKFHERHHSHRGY

B1: purified recombinant Sap2 (C. albicans secreted aspartic protease 2) (protein)
chain: QAVPVTLHNEQVTYAADITVGSNNQKLNVIVDTGSSDLWVPDVNVDCQVTYSDQTADFCKQKGTYDPSGSSASQDLNTPFKIGYGDGSSSQGTLYKDTVGFGGVSIKNQVLADVDSTSIDQGILGVGYKTNEAGGSYDNVPVTLKKQGVIAKNAYSLYLNSPDAATGQIIFGGVDNAKYSGSLIALPVTSDRELRISLGSVEVSGKTINTDNVDVLLDSGTTITYLQQDLADQIIKAFNGKLTQDSNGNSFYEVDCNLSGDVVFNFSKNAKISVPASEFAASLQGDDGQPYDKCQLLFDVNDANILGDNFLRSAYIVYDLDDNEISLAQVKYTSASSISALT
cleavage at the C-terminal side of residue 17 by Sap2 (mass spectrometry) [1]: Substitutions at K17 did lead to a significant decrease in signals from fragments formed by cleavage at the C-terminal side of K17, however, unlike Sap9, Sap2 still cleaved K17L and K17R at this site
cleavage at the C-terminal side of residue 17 by Sap2 (mass spectrometry) [2]: Substitutions at K17 did lead to a significant decrease in signals from fragments formed by cleavage at the C-terminal side of K17, however, unlike Sap9, Sap2 still cleaved K17L and K17R at this site
